Test results reported in PMC9886983, “Mechanism of regulation of the Helicobacter pylori Cagβ ATPase by CagZ” (Nature Communications, 2023).

T1: Cagβ-AAD1 (residues 289-488) E396A (Helicobacter pylori 26695, UniProt O25260 289-488, E396A)
T1 construct: Cagβ (HP0524, Cag5) of Helicobacter pylori 26695, residues 289-488, with E396A; also called Cagβ-AAD1_E396A; source: E. coli BL21 star (DE3), purified as the wild type but without TEV protease treatment; not shown: His6, N-terminal, kept; TrxA, N-terminal, kept
T1 sequence: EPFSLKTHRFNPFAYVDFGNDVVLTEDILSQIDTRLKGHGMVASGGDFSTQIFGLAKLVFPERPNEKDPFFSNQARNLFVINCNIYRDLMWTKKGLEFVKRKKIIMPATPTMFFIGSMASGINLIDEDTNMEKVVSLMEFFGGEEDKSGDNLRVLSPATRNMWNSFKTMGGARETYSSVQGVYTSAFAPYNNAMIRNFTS

T2: Cagβ1 (soluble region of Cagβ, residues 166-748) (Helicobacter pylori 26695, UniProt O25260 166-748)
T2 construct: Cagβ (HP0524, Cag5; VirD4 homolog) of Helicobacter pylori 26695, residues 166-748, soluble region without the transmembrane region; also called Cagβ1(166-748); Cagβ-WT; source: E. coli BL21 star (DE3), purified (Ni-NTA, TEV, second Ni-NTA, SEC); not shown: His6, N-terminal, cleaved; TrxA, N-terminal, cleaved
T2 sequence: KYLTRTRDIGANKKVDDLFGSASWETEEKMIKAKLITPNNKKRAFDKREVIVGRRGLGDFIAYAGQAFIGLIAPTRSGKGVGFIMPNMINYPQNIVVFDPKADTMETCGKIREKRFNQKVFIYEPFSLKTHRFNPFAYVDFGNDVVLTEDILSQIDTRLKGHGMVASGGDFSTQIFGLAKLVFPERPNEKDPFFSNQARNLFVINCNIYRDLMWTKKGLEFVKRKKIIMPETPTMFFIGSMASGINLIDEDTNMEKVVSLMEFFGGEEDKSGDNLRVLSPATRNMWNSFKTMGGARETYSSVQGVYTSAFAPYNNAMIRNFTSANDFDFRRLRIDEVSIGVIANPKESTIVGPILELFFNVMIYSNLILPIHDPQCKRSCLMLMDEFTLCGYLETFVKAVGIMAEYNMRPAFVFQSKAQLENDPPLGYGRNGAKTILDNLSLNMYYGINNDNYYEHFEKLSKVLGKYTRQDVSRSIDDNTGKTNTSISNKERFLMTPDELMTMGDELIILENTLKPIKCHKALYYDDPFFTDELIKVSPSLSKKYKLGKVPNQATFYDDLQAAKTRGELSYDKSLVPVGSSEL

T3: Cagβ-AAD2 (residues 289-505) (Helicobacter pylori 26695, UniProt O25260 289-505)
T3 construct: Cagβ (HP0524, Cag5) of Helicobacter pylori 26695, residues 289-505, holds the all-alpha domain (AAD); also called Cagβ-AAD2 (289-505); source: E. coli BL21 star (DE3), purified (Ni-NTA, TEV, second Ni-NTA, SEC); not shown: His6, N-terminal, cleaved; TrxA, N-terminal, cleaved
T3 sequence: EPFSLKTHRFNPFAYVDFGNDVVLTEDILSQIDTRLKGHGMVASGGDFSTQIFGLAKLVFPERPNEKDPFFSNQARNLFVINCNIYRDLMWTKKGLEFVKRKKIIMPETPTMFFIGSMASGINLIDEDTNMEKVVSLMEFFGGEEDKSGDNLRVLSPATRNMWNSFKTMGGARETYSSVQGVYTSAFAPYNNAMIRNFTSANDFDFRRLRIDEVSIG

T4: Cagβ2 (residues 243-748) (Helicobacter pylori 26695, UniProt O25260 243-748)
T4 construct: Cagβ (HP0524, Cag5) of Helicobacter pylori 26695, residues 243-748; also called Cagβ2 (243-748); source: E. coli BL21 star (DE3), purified (Ni-NTA, TEV, second Ni-NTA, SEC); not shown: His6, N-terminal, cleaved; TrxA, N-terminal, cleaved
T4 sequence: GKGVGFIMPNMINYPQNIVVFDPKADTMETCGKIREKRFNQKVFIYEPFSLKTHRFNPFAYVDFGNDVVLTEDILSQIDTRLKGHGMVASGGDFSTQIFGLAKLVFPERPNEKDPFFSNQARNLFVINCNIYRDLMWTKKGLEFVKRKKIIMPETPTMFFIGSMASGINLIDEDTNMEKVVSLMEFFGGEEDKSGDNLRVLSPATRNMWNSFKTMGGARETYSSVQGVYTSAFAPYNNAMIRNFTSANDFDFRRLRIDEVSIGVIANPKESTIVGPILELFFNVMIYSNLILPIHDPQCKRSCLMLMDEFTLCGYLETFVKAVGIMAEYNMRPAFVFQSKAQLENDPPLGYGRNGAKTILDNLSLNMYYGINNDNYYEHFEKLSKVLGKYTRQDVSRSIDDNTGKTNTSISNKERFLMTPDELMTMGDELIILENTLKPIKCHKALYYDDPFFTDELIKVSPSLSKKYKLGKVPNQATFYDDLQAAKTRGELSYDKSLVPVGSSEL


Key:
[1] = biological target: T1, Cagβ-AAD1 (residues 289-488) E396A; test: ITC; ITC-200, 25 °C, 20 mM Tris pH 8.0, 150 mM NaCl; Cagβ proteins (20 µM) in the cell, CagZ proteins (200 µM) in the syringe; conditions: both partners purified
[2] = biological target: T2, Cagβ1 (soluble region of Cagβ, residues …); test: as above; conditions: both partners purified
[3] = biological target: T3, Cagβ-AAD2 (residues 289-505); test: as above; conditions: both partners purified
Cagβ2 (residues 243-748) = biological target: T4, Cagβ2 (residues 243-748); test: as above; conditions: both partners purified
[4] = biological target: the molecule itself; test: crystal structure; apo-Cagβ1, 2.8 Å; crystals from 35% PEG400, 0.2 M Li2SO4, 0.1 M Tris 8.5 at 285 K; six protomers in the asymmetric unit

Binder | Kd [1] | Kd [2] | Kd [3] | Kd (Cagβ2 (residues 243-748)) | stoichiometry N [4]
CagZ (residues 2-199), wild type (natural protein, CagZ of Helicobacter pylori 26695, residues 2-199; also called CagZ-WT; source: E. coli BL21 star (DE3), purified (Ni-NTA, TEV, second Ni-NTA, SEC); not shown: His6, N-terminal, cleaved; TrxA, N-terminal, cleaved) ELGFNETERQKILDSNKSLMGNANEVRDKFIQNYASSLKDSNDPQDFLRRVQELRINMQKNFISFDVYYNYLNNLVLASYNRCKQEKTFAESTIKNELTLGEFVAEISDNFNNFMCDEVARISDLVASYLPREYLPPFIDGNMMGVAFQILGIDDFGRKLNEIVQDIGTKYIILSKNKTYLTSLERAKLITQLKLNLE | ~50 nM | 50 nM | 20 nM | 20 nM | –
Cagβ1 (soluble region of Cagβ, residues 166–748) (domain or fragment, Cagβ (HP0524, Cag5; VirD4 homolog) of H. pylori 26695, residues 166-748, the soluble (cytosolic) region; Dynamic hexamer; monomer at low concentration; also called apo-Cagβ1; HP0524; source: E. coli BL21 star (DE3), purified (Ni-NTA, TEV cleavage, second Ni-NTA, SEC); also co-expressed with CagZ-pET-28a and co-purified; not shown: His6, N-terminal, cleaved; TrxA, N-terminal, cleaved) KYLTRTRDIGANKKVDDLFGSASWETEEKMIKAKLITPNNKKRAFDKREVIVGRRGLGDFIAYAGQAFIGLIAPTRSGKGVGFIMPNMINYPQNIVVFDPKADTMETCGKIREKRFNQKVFIYEPFSLKTHRFNPFAYVDFGNDVVLTEDILSQIDTRLKGHGMVASGGDFSTQIFGLAKLVFPERPNEKDPFFSNQARNLFVINCNIYRDLMWTKKGLEFVKRKKIIMPETPTMFFIGSMASGINLIDEDTNMEKVVSLMEFFGGEEDKSGDNLRVLSPATRNMWNSFKTMGGARETYSSVQGVYTSAFAPYNNAMIRNFTSANDFDFRRLRIDEVSIGVIANPKESTIVGPILELFFNVMIYSNLILPIHDPQCKRSCLMLMDEFTLCGYLETFVKAVGIMAEYNMRPAFVFQSKAQLENDPPLGYGRNGAKTILDNLSLNMYYGINNDNYYEHFEKLSKVLGKYTRQDVSRSIDDNTGKTNTSISNKERFLMTPDELMTMGDELIILENTLKPIKCHKALYYDDPFFTDELIKVSPSLSKKYKLGKVPNQATFYDDLQAAKTRGELSYDKSLVPVGSSEL | – | – | – | – | 6
